Key:
[1] = target: Aβ produced naturally by APPswe.3 cells (secreted Aβ in conditioned medium) (UniProt P05067)
Human insulin = Human insulin (UniProt P01308)
amyloid-β peptide (1-42) = amyloid-β peptide (1-42) (UniProt P05067)
[2] = target: secreted ectodomain of the amyloid precursor protein derivative generated by α-secretase (APPsα) (UniProt P05067)
β-Amyloid (1-40) = β-Amyloid (1-40) (UniProt P05067)

Sequence of UniProt P01308 (P01308 whole entry, looked up): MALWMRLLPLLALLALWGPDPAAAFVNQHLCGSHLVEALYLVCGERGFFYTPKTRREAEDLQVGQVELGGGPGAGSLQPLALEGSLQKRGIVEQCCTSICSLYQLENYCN

Row | Substance | t½ for the degradation of secreted Aβ [1] | degradation followed by MALDI-TOF (Human insulin) | degradation followed by MALDI-TOF (amyloid-β peptide (1-42)) | degradation in conditioned medium (Western blot) [2] | Hill coefficient (β-Amyloid (1-40)) | Kcat (β-Amyloid (1-40)) | Km (β-Amyloid (1-40))
1 | IDE D426C/K899C double cysteine mutant | that by the IDE D426C/K899C mutant was 2 minutes | all three double cysteine IDE mutants degraded both insulin and Aβ(1-42) more effectively than wild-type IDE | all three double cysteine IDE mutants degraded both insulin and Aβ(1-42) more effectively than wild-type IDE | IDE had no effect on the secreted ectodomain of the amyloid precursor protein derivative generated by α-secretase (APPsα) | 2.3 | 20 s⁻¹ | 
2 | wild type human insulin-degrading enzyme (IDE) | The estimated t½ for the degradation of secreted Aβ by wild-type IDE was 11 minutes |  |  | IDE had no effect on the secreted ectodomain of the amyloid precursor protein derivative generated by α-secretase (APPsα) | 2.9 | 8 s⁻¹ | 25 µM
